Test results reported in publication PMC9519043.

Legend:
[1] = biological target: SARS-CoV-2 B.1.1.7 (S protein) (SARS-CoV-2 variant B.1.1.7) (UniProt P0DTC2); assay: SPR; conditions: SPR (BIAcore T200, […], pH not stated
[2] = biological target: SARS-CoV-2 B.1.351 (S protein) (SARS-CoV-2 variant B.1.351) (UniProt P0DTC2); assay: SPR; conditions: SPR (BIAcore T200, […], pH not stated
[3] = biological target: SARS-CoV-2 B.1.1.7 (S protein) (SARS-CoV-2 variant B.1.1.7) (UniProt P0DTC2); assay: microfluidic affinity capture, RT-qPCR; conditions: 5' amino C12 linker and TEG spacer 9; 3' inverted dT; SPR (BIAcore T200, […], pH not stated; […]

| Sequence | Kd [1] | Kd [2] | binding signal [3] |
| --- | --- | --- | --- |
| CAGCACCGACCTTGTGCTTTGGGAGTGCTGGTCCAAGGGCGTTAATGGACA [51-nt SARS-CoV-2 aptamer (Song et al.), SPR form] | 1000 nM | 1000 nM |  |
| CAGCACCGACCTTGTGCTTTGGGAGTGCTGGTCCAAGGGCGTTAATGGACA [51-nt SARS-CoV-2 aptamer, chip form] |  |  | 35 % recovery |
